Experimental data as given in patent publication US20170166655A1.
pIC50, pKd: −log10 of the molar value. Blank lines part the entries; values can stand above or below the substance they belong to.

Key:
V158 FcγRIIIa (human) = V158 FcγRIIIa (human) (UniProt P08637); experiment: SPR
F158 FcγRIIIa (human) = F158 FcγRIIIa (human) (UniProt P08637); experiment: SPR
FcγRI (human) = FcγRI (human) (UniProt P12314); experiment: SPR
R131 FcγRIIa (human) = R131 FcγRIIa (human) (UniProt P12318); experiment: SPR
FcγRIIb (human) = FcγRIIb (human) (UniProt P31994); experiment: SPR
H131 FcγRIIa (human) = H131 FcγRIIa (human) (UniProt P12318); experiment: SPR
[1] = molecular target: human V158 FcγRIIIa, extracellular region (human) (UniProt P08637); experiment: SPR
[2] = molecular target: human V158 FcγRIIIa, extracellular region (human) (UniProt P08637); experiment: AlphaScreen competition
[3] = molecular target: human F158 FcγRIIIa, extracellular region (human) (UniProt P08637); experiment: SPR
[4] = molecular target: human FcγRIIIa on human PBMC effector cells (human) (UniProt P08637); experiment: cell-based or functional assay
[5] = molecular target: human F158 FcγRIIIa, extracellular region (human) (UniProt P08637); experiment: AlphaScreen competition

- pKd (V158 FcγRIIIa (human)): 7.13
- pKd (F158 FcγRIIIa (human)): 4.16
- pKd (FcγRI (human)): 9.84
- pKd (R131 FcγRIIa (human)): 6.59
- pKd (FcγRIIb (human)): 6.18
- pKd (H131 FcγRIIa (human)): 6.50
Substance: IgG2_P233E/V234L/A235L/^235G/G327A

- pKd (V158 FcγRIIIa (human)): 7.91
- pKd (F158 FcγRIIIa (human)): 7.30
- pKd (FcγRI (human)): 10.04
- pKd (R131 FcγRIIa (human)): 7.16
- pKd (FcγRIIb (human)): 7.07
- pKd (H131 FcγRIIa (human)): 7.17
Substance: IgG2_P233E/V234L/A235L/^235G/S239D/I332E

- pKd (F158 FcγRIIIa (human)): 7.90
- pKd (R131 FcγRIIa (human)): 7.19
- pKd (FcγRIIb (human)): 7.00
- pKd (H131 FcγRIIa (human)): 6.90
Substance: IgG2_P233E/V234L/A235L/^235G/S239D/I332E/G327A

- pKd (V158 FcγRIIIa (human)): 7.67
- pKd (F158 FcγRIIIa (human)): 7.22
- pKd (FcγRI (human)): 8.71
- pKd (R131 FcγRIIa (human)): 7.19
- pKd (FcγRIIb (human)): 6.58
- pKd (H131 FcγRIIa (human)): 7.14
Substance: IgG2_S239D/I332E/^P233EL

- pKd (V158 FcγRIIIa (human)): 7.60
- pKd (F158 FcγRIIIa (human)): 7.27
- pKd (FcγRI (human)): 8.48
- pKd (R131 FcγRIIa (human)): 7.17
- pKd (FcγRIIb (human)): 6.62
- pKd (H131 FcγRIIa (human)): 7.09
Substance: IgG2_S239D/I332E/^P233L

- pKd (V158 FcγRIIIa (human)): 7.47
- pKd (F158 FcγRIIIa (human)): 7.02
- pKd (FcγRI (human)): 9.20
- pKd (R131 FcγRIIa (human)): 7.56
- pKd (FcγRIIb (human)): 7.02
- pKd (H131 FcγRIIa (human)): 7.54
Substance: IgG2_S239D/I332E/^V234L

- Fold WT [1]: 5.5 fold
- Fold WT [2]: 2.35 fold
Substance: alemtuzumab IgG1 E258H (antibody)

- Fold WT [1]: 1.77 fold
Substance: alemtuzumab IgG1 E258Y (antibody)

- Fold WT [1]: 384 fold
Substance: alemtuzumab IgG1 E272H (antibody)

- Fold WT [1]: 1.41 fold
- Fold WT [2]: 1.46 fold
Substance: alemtuzumab IgG1 E272P (antibody)

- Fold WT [1]: 1.38 fold
Substance: alemtuzumab IgG1 E272R (antibody)

- Fold WT [1]: 2.31 fold
Substance: alemtuzumab IgG1 E283H (antibody)

- Fold WT [1]: 2.56 fold
Substance: alemtuzumab IgG1 E283L (antibody)

- Fold WT [1]: 5.66 fold
Substance: alemtuzumab IgG1 H268D (antibody)

- Fold WT [1]: 11.2 fold
Substance: alemtuzumab IgG1 I332D (antibody)

- pKd [3]: 7.14
- pKd [1]: 7.51
Substance: alemtuzumab IgG1 I332E (antibody)

- Fold WT [1]: 22.4 fold
Substance: alemtuzumab IgG1 K246H (antibody)

- Fold WT [1]: 3.13 fold
- Fold WT [2]: 1.86 fold
Substance: alemtuzumab IgG1 K326E (antibody)

- fold of glycosylated WT alemtuzumab [2]: 0.4 fold
Substance: alemtuzumab IgG1 N297D/A330Y/I332E (aglycosylated) (antibody)

- Fold WT [1]: 1.41 fold
Substance: alemtuzumab IgG1 R255Y (antibody)

- ADCC EC50, DoHH-2 target cells, PBMCs V158/F158 FcγRIIIa [4]: 3 ng/mL
- ADCC Fold WT, DoHH-2 target cells, PBMCs V158/F158 FcγRIIIa [4]: 3.3 fold
- ADCC log(EC50), DoHH-2 target cells, PBMCs V158/F158 FcγRIIIa [4]: 0.49 log(ng/ml)
Substance: alemtuzumab IgG1 S239D/I332E (antibody)

- fold of glycosylated WT alemtuzumab [2]: 0.8 fold
Substance: alemtuzumab IgG1 S239D/N297D/I332E (aglycosylated) (antibody)

- Fold WT [1]: 3.28 fold
- Fold WT [2]: 2.64 fold
Substance: alemtuzumab IgG1 S239E (antibody)

- Fold WT [1]: 2.62 fold
Substance: alemtuzumab IgG1 S267E (antibody)

- pKd [3]: 6.55
- pKd [1]: 7.28
Substance: alemtuzumab IgG1 S298A (antibody)

- pKd [3]: 6.81
- pKd [1]: 7.41
Substance: alemtuzumab IgG1 S298A/E333A/K334A (antibody)

- Fold WT [1]: 12.8 fold
Substance: alemtuzumab IgG1 S304T (antibody)

- Fold WT [1]: 1.86 fold
Substance: alemtuzumab IgG1 T260H (antibody)

- pKd [3]: 6.26
- pKd [1]: 7.19
Substance: alemtuzumab IgG1 V264I (antibody)

- Fold WT [3]: 14 fold
- pKd [3]: 7.28
- Fold WT [1]: 4 fold
- pKd [1]: 7.77
- ADCC EC50, DoHH-2 target cells, PBMCs V158/F158 FcγRIIIa [4]: 4 ng/mL
- ADCC Fold WT, DoHH-2 target cells, PBMCs V158/F158 FcγRIIIa [4]: 2.5 fold
- ADCC log(EC50), DoHH-2 target cells, PBMCs V158/F158 FcγRIIIa [4]: 0.6 log(ng/ml)
- Fold WT [5]: 15.6 fold
- pIC50 [5]: 8.96
- Fold WT [2]: 12.8 fold
- pIC50 [2]: 9.30
Substance: alemtuzumab IgG1 V264I/I332E (antibody)

- Fold WT [1]: 1.51 fold
Substance: alemtuzumab IgG1 V284E (antibody)

- pKd [3]: 6.14
- pKd [1]: 7.17
Substance: alemtuzumab IgG1 WT (antibody)

- ADCC EC50, FIG. 118b [4]: 0.37 ng/mL
- ADCC Fold WT, FIG. 118b [4]: 4.6 fold
- ADCC log(EC50), FIG. 118b [4]: -0.44 log(ng/ml)
Substance: rituximab IgG1 S298A/E333A/K334A (antibody)

- ADCC EC50, FIG. 118b, WIL2-S target cells, human PBMCs [4]: 1.7 ng/mL
- ADCC EC50, FIG. 118c, PBMCs F158/F158 FcγRIIIa [4]: 5.9 ng/mL
- ADCC log(EC50), FIG. 118b, WIL2-S target cells, human PBMCs [4]: 0.23 log(ng/ml)
- ADCC log(EC50), FIG. 118c, PBMCs F158/F158 FcγRIIIa [4]: 0.77 log(ng/ml)
Substance: rituximab IgG1 WT (antibody)

- ADCC EC50, FIG. 117b [4]: 1.1 ng/mL
- ADCC Fold WT, FIG. 117b [4]: 10.5 fold
- ADCC log(EC50), FIG. 117b [4]: 0.04 log(ng/ml)
Substance: trastuzumab IgG1 A330L/I332E (antibody)

- ADCC EC50, FIG. 117b [4]: 0.9 ng/mL
- ADCC Fold WT, FIG. 117b [4]: 12.8 fold
- ADCC log(EC50), FIG. 117b [4]: -0.04 log(ng/ml)
Substance: trastuzumab IgG1 A330Y/I332E (antibody)

- Fold WT [1]: 0.65 fold
Substance: trastuzumab IgG1 E272H (antibody)

- Fold WT [1]: 3.68 fold
- Fold WT [2]: 19.9 fold
Substance: trastuzumab IgG1 E283L (antibody)

- Fold WT [1]: 2.57 fold
- Fold WT [2]: 19 fold
Substance: trastuzumab IgG1 I332D (antibody)

- Fold WT [1]: 7.1 fold
- Fold WT [2]: 15.2 fold
Substance: trastuzumab IgG1 K334I (antibody)

- pKd [3]: 8.31
- pKd [1]: 8.06
Substance: trastuzumab IgG1 S239D/I332E/S298A (antibody)

- ADCC EC50, FIG. 117c, PBMCs F158/F158 FcγRIIIa [4]: 0.2 ng/mL
- ADCC Fold WT, FIG. 117c, PBMCs F158/F158 FcγRIIIa [4]: 3.6 fold
- ADCC log(EC50), FIG. 117c, PBMCs F158/F158 FcγRIIIa [4]: -0.72 log(ng/ml)
Substance: trastuzumab IgG1 S298A/E333A/K334A (antibody)
